Data reported in article PMC3346761, “Insight into the Assembly Properties and Functional Organisation of the Magnetotactic Bacterial Actin-like Homolog, MamK” (PLoS ONE, 2012).

Target: the molecule itself
Experiment: small angle scattering + dynamic light scattering (PDI); results not shown; conditions not given

B1: MamK from Magnetospirillum gryphiswaldense MSR-1, C-terminal poly-histidine-tagged (natural protein, UniProt Q6NE59 1-360, looked up)
chain: MWIDLLARERSDKMSEGEGQAKNRLFLGIDLGTSHTAVMTSRGKKFLLKSVVGYPKDVIGLKLLGRPYVVGDEAFEMRSYLDLRYPLQDGVLSEISDRDIEVARHLLTHVVKSAEPGANDEICAVIGVPARASGANKALLLKMAQEVVHTALVVSEPFMVGYGLDKLNNTIIVDIGAGTTDICALKGTVPGPEDQVTLTKAGNYLDERLQNAILERHPELQMNTNVACAVKEQFSFVGARGEAATFEFRAAGKPVRCDVTESVKIACEALMPDIIESIEILLRSFQPEYQATVLQNIVFAGGGSRIRGLAAYVKDKLRPFGNADVTCVKDPTFDGCRGALRLAEELPPQYWCQLGDVSGQ
notes: MamK, actin-like protein of M. gryphiswaldense MSR-1; mamK gene (1083 bp) cut from a MamK-pGEM construct with SalI/EcoRI and sub-cloned into pET29b; purified as a 42 KDa protein; No cleavage of the tag is described; also called His-MamK; His-tagged MamK
stoichiometry N: 2 to 6
